B1: mAb4 (Y32R) (antibody, human IgG2, kappa, V domains shown)
VH: QVQLVQSGAEVKKPGASVKVSCKASGYTFTGRYMHWVRQAPGQGLEWMGWINPDSGGTNYAQKFQGRVTMTRDTSISTAYMELNRLRSDDTAVYYCARDQPLGYCTNGVCSYFDYWGQGTLVTVSS
VL: DIQMTQSPSSVSASVGDRVTITCRASQGIYSWLAWYQQKPGKAPNLLIYTASTLQSGVPSRFSGSGSGTDFTLTISSLQPEDFATYYCQQANIFPLTFGGGTKVEIKR
notes: Mutant of AbC1 with the same constant regions (IgG2)
B2: MC3 (masked mAb1 comprising MM1 and CL2) (antibody, human IgG2, kappa)
heavy: QVQLVQSGAEVKKPGASVKVSCKASGYTFTGKYMHWVRQAPGQGLEWMGWINPDSGGTNYAQKFQGRVTMTRDTSIATAYMELNRLRSDDTAVYYCARDQPLGYCTNGVCSYFDYWGQGTLVTVSSASTKGPSVFPLAPCSRSTSESTAALGCLVKDYFPEPVTVSWNSGALTSGVHTFPAVLQSSGLYSLSSVVTVPSSNFGTQTYTCNVDHKPSNTKVDKTVERKCCVECPPCPAPPVAGPSVFLFPPKPKDTLMISRTPEVTCVVVDVSHEDPEVQFNWYVDGVEVHNAKTKPREEQFNSTFRVVSVLTVVHQDWLNGKEYKCKVSNKGLPAPIEKTISKTKGQPREPQVYTLPPSREEMTKNQVSLTCLVKGFYPSDIAVEWESNGQPENNYKTTPPMLDSDGSFFLYSKLTVDKSRWQQGNVFSCSVMHEALHNHYTQKSLSLSPGK
light: EDEPGIRCYYNDDTCQYSGRSAGGGGPLGLAGSGGSDIQMTQSPSSVSASVGDRVTITCRASQGIYSWLAWYQQKPGKAPNLLIYTASTLQSGVPSRFSGSGSGTDFTLTISSLQPEDFATYYCQQANIFPLTFGGGTKVEIKRTVAAPSVFIFPPSDEQLKSGTASVVCLLNNFYPREAKVQWKVDNALQSGNSQESVTEQDSKDSTYSLSSTLTLSKADYEKHKVYACEVTHQGLSSPVTKSFNRGEC
notes: Conditionally-active (masked) antibody
B3: MC4 (masked mAb1 comprising MM2 and CL2) (antibody, human IgG2, kappa)
heavy: B2 heavy
light: EVGSYYVCPVRFQYFCEESGRSAGGGGPLGLAGSGGSDIQMTQSPSSVSASVGDRVTITCRASQGIYSWLAWYQQKPGKAPNLLIYTASTLQSGVPSRFSGSGSGTDFTLTISSLQPEDFATYYCQQANIFPLTFGGGTKVEIKRTVAAPSVFIFPPSDEQLKSGTASVVCLLNNFYPREAKVQWKVDNALQSGNSQESVTEQDSKDSTYSLSSTLTLSKADYEKHKVYACEVTHQGLSSPVTKSFNRGEC
notes: as for B2

Experiments:
[1] = biological target: T1, human CD40 on cells (human, UniProt P25942 21-277); experiment: flow cytometry on human primary naive B-cells, 1 h at 4 °C, AF488-conjugated secondary antibody (MFI)
T1 construct: also called hCD40
T1 sequence (P25942 21-277 limits assumed): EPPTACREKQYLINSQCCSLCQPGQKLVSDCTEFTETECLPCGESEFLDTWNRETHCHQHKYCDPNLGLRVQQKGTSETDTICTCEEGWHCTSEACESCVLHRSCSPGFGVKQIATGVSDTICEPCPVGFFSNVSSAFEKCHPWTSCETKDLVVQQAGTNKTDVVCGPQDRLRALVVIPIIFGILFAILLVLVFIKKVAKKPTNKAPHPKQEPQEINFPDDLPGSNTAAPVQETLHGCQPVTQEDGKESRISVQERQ
Procedure: Naive B-cell were plated at a density of […] cells per well in 96-well plates and incubated with CD40 agonists, hexameric ligand and anti-CD40 antibodies, for 1 hour at 4° C.

[2] = biological target: T1, human CD40 on cells; experiment: flow cytometry on Raji cells
Procedure: (§1) Briefly, Raji cells were seeded in 96-well plates at 1.0×10⁵ cells/well and incubated with serially-diluted test antibodies for 60 minutes at 4° C. in 2% FBS/dPBS buffer. The cells were then washed twice with dPBS and further incubated with secondary allophycocyanin (APC)-conjugated AffiniPure F(ab′)₂ fragment donkey anti-human IgG (H+L) antibody (Jackson ImmunoResearch, Ref. 709-136-149) (1:500) for 30 minutes at 4° C. Finally, the cells were washed twice with dPBS and suspended in FACS buffer for flow cytometry analysis. MFI values vs concentrations were analyzed by FlowJo and data were further fitted with four-parameter non-linear regression to get EC₅₀ values by GraphPad Prism software.

[3] = biological target: T1, human CD40 on cells; experiment: cell-based or functional assay
[4] = biological target: T1, human CD40 on cells; experiment: flow cytometry on U-2 OS/NFκB cells
Procedure: as §1, with “cultured U-2 OS/NFκB” for “Raji”

[5] = biological target: T1, human CD40 on cells; experiment: cell-based or functional assay; remark: listed apart in the source
[6] = biological target: T1, human CD40 on cells; experiment: cell-based or functional assay; remark: listed apart in the source
[7] = biological target: T1, human CD40 on cells; experiment: flow cytometry on U-2 OS/NFκB cells; EC50 relative to mAb1
Procedure: as §1, with “cultured U-2 OS/NFκB” for “Raji”

[8] = biological target: T1, human CD40 on cells; experiment: cell-based or functional assay; remark: listed apart in the source
[9] = biological target: T1, human CD40 on cells; experiment: flow cytometry on Raji cells; EC50 relative to mAb1
Procedure: as §1

Binder | binding result [1] | EC50 [2] [nM] | EC50, CD83 expression, B-cells of hCD40 KI mice [3] [nM] | EC50, CD86 expression, B-cells of hCD40 KI mice [3] [nM] | Relative masking efficacy, CD83 expression, B-cells of hCD40 KI mice [3] [fold] | Relative masking efficacy, CD86 expression, B-cells of hCD40 KI mice [3] [fold] | EC50 [4] [nM] | EC50, luciferase reporter assay in U-2 OS/NFκB cells [5] [nM] | Relative masking efficacy, luciferase reporter assay in U-2 OS/NFκB cells [5] [fold] | EC50, CD83 expression, MoDC maturation assay [6] [nM] | EC50, IL-8 release, MoDC maturation assay [6] [nM] | Relative masking efficacy [7] [fold] | EC50, CD86 expression, primary human B-cell activation assay [8] [nM] | Relative masking efficacy, CD86 expression, primary human B-cell activation assay [8] [fold] | Relative masking efficacy [9] [fold]
B1 | binds |  |  |  |  |  |  |  |  |  |  |  |  |  | 
B2 |  | 388 | 2.84 | 2.01 | 55.7 | 64.9 | 197 | 108 | 457 | 27.4 | 13.3 | 131 | 27.9 | 158 | 289
B3 |  | 143 | 1.24 | 1.05 | 24.3 | 33.8 | 176 | 45.8 | 193 | 17.2 | 12.2 | 118 | 14.7 | 84 | 107

From patent US20240279350A1 (Sanofi, published 2024)
